Reference: US20020127539A1, “Assays for identifying receptors having alterations in signaling” (priority 2000, published 2002)

Columns and labels:
[1] = target: Asn150Ala mutant rat mu opioid receptor (rat); assay: cell-based or functional assay
[2] = target: wild-type rat mu opioid receptor (rat); assay: cell-based or functional assay

With “[D-Ala2-MePhe4, Gly-ol5]enkephalin (peptide)” the Average Ligand Stimulated Activity (Light Emission), SRE-Luc + Gq5i luciferase reporter in HEK293 cells (light emission) [1] was 87000 and the Average Ligand Stimulated Activity (Light Emission), SRE-Luc + Gq5i luciferase reporter in HEK293 cells (light emission) [2] was 87500.
